Patent US20230381331A1 (HANMI PHARM, published 2023)
Non-standard residues stand in square brackets, D forms with d. No end group written: not given here. Aib = CC(C)(N)C(=O)O

T1: human GIP receptor (human, UniProt P48546 22-466)
T1 sequence (looked up): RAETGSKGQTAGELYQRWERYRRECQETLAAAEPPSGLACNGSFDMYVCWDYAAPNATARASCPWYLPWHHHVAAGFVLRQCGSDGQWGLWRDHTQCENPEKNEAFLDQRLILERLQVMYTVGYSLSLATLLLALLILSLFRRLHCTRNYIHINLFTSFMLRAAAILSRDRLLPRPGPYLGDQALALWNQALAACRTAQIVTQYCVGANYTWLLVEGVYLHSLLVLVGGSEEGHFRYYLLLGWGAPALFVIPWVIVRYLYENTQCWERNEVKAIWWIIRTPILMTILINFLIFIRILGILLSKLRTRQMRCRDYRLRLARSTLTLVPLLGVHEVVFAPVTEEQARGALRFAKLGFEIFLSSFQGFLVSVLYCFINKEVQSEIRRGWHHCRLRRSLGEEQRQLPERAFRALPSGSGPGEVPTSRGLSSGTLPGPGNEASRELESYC


Biological target: T1, human GIP receptor
Test: cell-based or functional assay

Row | Binder | In vitro activity of GIP derivative compared to human native GIP in human GIP receptor (%) (cAMP EC50, LANCE cAMP kit, CHO cells)
1 | Y[Aib]EGTFISDYSIAMDAIAQQDFVNWLLAGGPSSGAPPPSC [GIP derivative of SEQ ID NO: 2] | 13.9
2 | Y[Aib]EGTFISDYSIQMDAIAQQDFVNWLLAGGPSSGAPPPSC [GIP derivative of SEQ ID NO: 5] | 12.1
3 | Y[Aib]EGTFISDYSIYLDAQAA[Aib]DFVNWLLAGGPSSGAPPPSC [GIP derivative of SEQ ID NO: 8] | 1.9
4 | Y[Aib]EGTFISDYSIAMDAIAQQDFVNWLLAQKPSSGAPPPSC (not fully specified) [GIP derivative of SEQ ID NO: 1] | 49.3
5 | Y[Aib]EGTFISDYSIYLDKQAAQEFVNWLLAQKPSSGAPPPSC [GIP derivative of SEQ ID NO: 18] | 13.6
6 | Y[Aib]EGTFISDYSIYLDKQAA[Aib]EFVQWLIAGHPSSGAPPPC [GIP derivative of SEQ ID NO: 26] | 66.7
7 | Y[Aib]EGTFISDYSIALEKQAQQDFVNWLLAGGPSSGAPPPSC [GIP derivative of SEQ ID NO: 17] | 111
8 | Y[Aib]EGTFISDYSI[Aib]MDAIAQQDFVNWLLAGGPSSGAPPPSC [GIP derivative of SEQ ID NO: 3] | 15.6
9 | Y[Aib]EGTFISDYSIYLDKQAQKEFVNWLL[Aib]GGPSSGAPPPSC [GIP derivative of SEQ ID NO: 23] | 87.6
10 | Y[Aib]EGTFISDYSIAMDGIAQQDFVNWLLAQKPSSGAPPPSC (not fully specified) [GIP derivative of SEQ ID NO: 16] | 11.3
11 | Y[Aib]EGTFISDYSIYLDKQAA[Aib]EFVNWLLAGHPSSGAPPPSC [GIP derivative of SEQ ID NO: 22] | 71.6
12 | Y[Aib]EGTFISDYSIYLDKQAA[Aib]EFVNWLLAQKC (not fully specified) [GIP derivative of SEQ ID NO: 13] | 31.1
13 | Y[Aib]EGTFISDYSIYLDAQAAKEFIAWLLAGGPSSGAPPPSC (not fully specified) [GIP derivative of SEQ ID NO: 10] | 13.9
14 | Y[Aib]EGTFISDYSIYLDKQAA[Aib]EFVNWLL[Aib]GHPSSGAPPPSC [GIP derivative of SEQ ID NO: 19] | 66.7
15 | Y[Aib]EGTFISDYSIYLDKQAA[Aib]EFVNWLLAQKGKKNDWKHNITQC (not fully specified) [GIP derivative of SEQ ID NO: 12] | 49.2
16 | Y[Aib]EGTFISDYSIAMDKIAQQDFVNWLLAQKPSSGAPPPSC (not fully specified) [GIP derivative of SEQ ID NO: 15] | 31.1
17 | Y[Aib]EGTFISDYSIAMDAIAQQDFVNWLLAQKGKKNDWKHNITQC (not fully specified; printed as YAibEGT FISDYSIAMDAIAQQDFVNWLLAQKGKKNDWKHNITQC) [GIP derivative of SEQ ID NO: 11] | 122
18 | Y[Aib]EGTFISDYSIYLDKQAA[Aib]EFVQWLI[Aib]GGPSSGAPPPSC [GIP derivative of SEQ ID NO: 25] | 78.3
19 | Y[Aib]EGTFISDYSIYMDAIAQQDFVNWLLAGGPSSGAPPPSC [GIP derivative of SEQ ID NO: 4] | 10.5
20 | Y[Aib]EGTFISDYSIYLDKQAA[Aib]EFVNWLL[Aib]GGPSSGAPPPSC [GIP derivative of SEQ ID NO: 20] | 75.3
21 | Y[Aib]EGTFISDYSIYLDAQAAKDFVNWLLAGGPSSGAPPPSC [GIP derivative of SEQ ID NO: 9] | 2
22 | Y[Aib]EGTFISDYSIYLDAIAQQDFVNWLLAGGPSSGAPPPSC [GIP derivative of SEQ ID NO: 6] | 17.4
23 | Y[Aib]EGTFISDYSI[Aib]LDKQAA[Aib]EFVNWLL[Aib]GHPSSGAPPPSC [GIP derivative of SEQ ID NO: 24] | 183
24 | Y[Aib]EGTFISDYSI[Aib]LDKQAA[Aib]EFVNWLL[Aib]GGPSSGAPPPSC [GIP derivative of SEQ ID NO: 21] | 123
25 | Y[Aib]EGTFISDYSIYLDAQAA[Aib]EFVNWLLAQKC (not fully specified) [GIP derivative of SEQ ID NO: 14] | 17.4
26 | Y[Aib]EGTFISDYSIYLDAQAQQDFVNWLLAGGPSSGAPPPSC [GIP derivative of SEQ ID NO: 7] | 19.6
